IntAct's records for PubMed 10659709

B1: Regulatory protein NPR1 (Arabidopsis thaliana (Mouse-ear cress)), P93002 (parent)
chain: MDTTIDGFADSYEISSTSFVATDNTDSSIVYLAAEQVLTGPDVSALQLLSNSFESVFDSPDDFYSDAKLVLSDGREVSFHRCVLSARSSFFKSALAAAKKEKDSNNTAAVKLELKEIAKDYEVGFDSVVTVLAYVYSSRVRPPPKGVSECADENCCHVACRPAVDFMLEVLYLAFIFKIPELITLYQRHLLDVVDKVVIEDTLVILKLANICGKACMKLLDRCKEIIVKSNVDMVSLEKSLPEELVKEIIDRRKELGLEVPKVKKHVSNVHKALDSDDIELVKLLLKEDHTNLDDACALHFAVAYCNVKTATDLLKLDLADVNHRNPRGYTVLHVAAMRKEPQLILSLLEKGASASEATLEGRTALMIAKQATMAVECNNIPEQCKHSLKGRLCVEILEQEDKREQIPRDVPPSFAVAADELKMTLLDLENRVALAQRLFPTEAQAAMEIAEMKGTCEFIVTSLEPDRLTGTKRTSPGVKIAPFRILEEHQSRLKALSKTVELGKRFFPRCSAVLDQIMNCEDLTQLACGEDDTAEKRLQKKQRYMEIQETLKKAFSEDNLELGNSSLTDSTSSTSKSTGGKRSNRKLSHRRR
partner: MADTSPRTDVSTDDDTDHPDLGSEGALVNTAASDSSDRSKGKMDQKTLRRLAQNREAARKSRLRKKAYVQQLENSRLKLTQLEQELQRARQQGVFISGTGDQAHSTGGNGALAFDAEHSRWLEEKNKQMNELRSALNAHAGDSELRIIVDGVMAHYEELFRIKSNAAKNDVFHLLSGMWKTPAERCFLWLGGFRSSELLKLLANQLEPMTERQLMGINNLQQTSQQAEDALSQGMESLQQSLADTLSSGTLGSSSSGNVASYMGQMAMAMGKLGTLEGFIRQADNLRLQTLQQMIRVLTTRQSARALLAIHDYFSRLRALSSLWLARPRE

Variants of: B1
Conditions: with tga2_arath TGA2, P43273

Effect of a mutation on the interaction, disrupting interaction:
MDTTIDGFADSYEISSTSFVATDNTDSSIVYLAAEQVLTGPDVSALQLLSNSFESVFDSPDDFYSDAKLVLSDGREVSFHRCVLSARSSFFKSALAAAKKEKDSNNTAAVKLELKEIAKDYEVGFDSVVTVLAYVYSSRVRPPPKGVSECADENCCHVACRPAVDFMLEVLYLAFIFKIPELITLYQRHLLDVVDKVVIEDTLVILKLANICGKACMKLLDRCKEIIVKSNVDMVSLEKSLPEELVKEIIDRRKELGLEVPKVKKHVSNVHKALDSDDIELVKLLLKEDHTNLDDACALHFAVAYCNVKTATDLLKLDLADVNHRNPRGYTVLHVAAMRKESQLILSLLEKGASASEATLEGRTALMIAKQATMAVECNNIPEQCKHSLKGRLCVEILEQEDKREQIPRDVPPSFAVAADELKMTLLDLENRVALAQRLFPTEAQAAMEIAEMKGTCEFIVTSLEPDRLTGTKRTSPGVKIAPFRILEEHQSRLKALSKTVELGKRFFPRCSAVLDQIMNCEDLTQLACGEDDTAEKRLQKKQRYMEIQETLKKAFSEDNLELGNSSLTDSTSSTSKSTGGKRSNRKLSHRRR [P342S]
MDTTIDGFADSYEISSTSFVATDNTDSSIVYLAAEQVLTGPDVSALQLLSNSFESVFDSPDDFYSDAKLVLSDGREVSFHRCVLSARSSFFKSALAAAKKEKDSNNTAAVKLELKEIAKDYEVGFDSVVTVLAYVYSSRVRPPPKGVSECADENCCHVACRPAVDFMLEVLYLAFIFKIPELITLYQRHLLDVVDKVVIEDTLVILKLANICGKACMKLLDRCKEIIVKSNVDMVSLEKSLPEELVKEIIDRRKELGLEVPKVKKHVSNVHKALDSDDIELVKLLLKEDHTNLDDACALYFAVAYCNVKTATDLLKLDLADVNHRNPRGYTVLHVAAMRKEPQLILSLLEKGASASEATLEGRTALMIAKQATMAVECNNIPEQCKHSLKGRLCVEILEQEDKREQIPRDVPPSFAVAADELKMTLLDLENRVALAQRLFPTEAQAAMEIAEMKGTCEFIVTSLEPDRLTGTKRTSPGVKIAPFRILEEHQSRLKALSKTVELGKRFFPRCSAVLDQIMNCEDLTQLACGEDDTAEKRLQKKQRYMEIQETLKKAFSEDNLELGNSSLTDSTSSTSKSTGGKRSNRKLSHRRR [H300Y]
MDTTIDGFADSYEISSTSFVATDNTDSSIVYLAAEQVLTGPDVSALQLLSNSFESVFDSPDDFYSDAKLVLSDGREVSFHRCVLSARSSFFKSALAAAKKEKDSNNTAAVKLELKEIAKDYEVGFDSVVTVLAYVYSSRVRPPPKGVSECADENCCHVACRPAVDFMLEVLYLAFIFKIPELITLYQRHLLDVVDKVVIEDTLVILKLANICGKACMKLLDRCKEIIVKSNVDMVSLEKSLPEELVKEIIDRRKELGLEVPKVKKHVSNVHKALDSDDIELVKLLLKEDHTNLDDACALHFAVAYCNVKTATDLLKLDLADVNHRNPRGYTVLYVAAMRKEPQLILSLLEKGASASEATLEGRTALMIAKQATMAVECNNIPEQCKHSLKGRLCVEILEQEDKREQIPRDVPPSFAVAADELKMTLLDLENRVALAQRLFPTEAQAAMEIAEMKGTCEFIVTSLEPDRLTGTKRTSPGVKIAPFRILEEHQSRLKALSKTVELGKRFFPRCSAVLDQIMNCEDLTQLACGEDDTAEKRLQKKQRYMEIQETLKKAFSEDNLELGNSSLTDSTSSTSKSTGGKRSNRKLSHRRR [H334Y]
